Test results published in article PMC9537153 (Nature Communications, 2022).
Where two headings read alike, the source gives them in different places.

Key:
[1] = target: T1, p19, C-terminal 19 kDa fragment of Merozoite Surface Protein 1 (MSP-1), Plasmodium falciparum 3D7 allele, … (Plasmodium falciparum 3D7)
T1 chain: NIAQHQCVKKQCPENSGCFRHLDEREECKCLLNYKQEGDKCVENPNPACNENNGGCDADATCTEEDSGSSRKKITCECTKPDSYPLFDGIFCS

[2] = target: T2, full-length Merozoite Surface Protein 1 (MSP-1), Plasmodium falciparum 3D7 allele, non-glycosylated, His6 (Plasmodium falciparum 3D7, UniProt Q8I0U8)
[3] = target: T2, full-length Merozoite Surface Protein 1 …; assay: ELISA; settings: both partners purified
[4] = target: T3, biotinylated p19 (3D7 allele, non-glycosylated) with C-terminal Avi-tag and His6 tag (Plasmodium falciparum 3D7, enzymatically biotinylated on a C-terminal AviTag); assay: BLI; settings: both partners purified
T3 chain: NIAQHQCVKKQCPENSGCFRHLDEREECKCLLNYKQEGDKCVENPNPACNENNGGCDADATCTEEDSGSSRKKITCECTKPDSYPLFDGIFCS

T2 sequence (Q8I0U8 whole entry, looked up): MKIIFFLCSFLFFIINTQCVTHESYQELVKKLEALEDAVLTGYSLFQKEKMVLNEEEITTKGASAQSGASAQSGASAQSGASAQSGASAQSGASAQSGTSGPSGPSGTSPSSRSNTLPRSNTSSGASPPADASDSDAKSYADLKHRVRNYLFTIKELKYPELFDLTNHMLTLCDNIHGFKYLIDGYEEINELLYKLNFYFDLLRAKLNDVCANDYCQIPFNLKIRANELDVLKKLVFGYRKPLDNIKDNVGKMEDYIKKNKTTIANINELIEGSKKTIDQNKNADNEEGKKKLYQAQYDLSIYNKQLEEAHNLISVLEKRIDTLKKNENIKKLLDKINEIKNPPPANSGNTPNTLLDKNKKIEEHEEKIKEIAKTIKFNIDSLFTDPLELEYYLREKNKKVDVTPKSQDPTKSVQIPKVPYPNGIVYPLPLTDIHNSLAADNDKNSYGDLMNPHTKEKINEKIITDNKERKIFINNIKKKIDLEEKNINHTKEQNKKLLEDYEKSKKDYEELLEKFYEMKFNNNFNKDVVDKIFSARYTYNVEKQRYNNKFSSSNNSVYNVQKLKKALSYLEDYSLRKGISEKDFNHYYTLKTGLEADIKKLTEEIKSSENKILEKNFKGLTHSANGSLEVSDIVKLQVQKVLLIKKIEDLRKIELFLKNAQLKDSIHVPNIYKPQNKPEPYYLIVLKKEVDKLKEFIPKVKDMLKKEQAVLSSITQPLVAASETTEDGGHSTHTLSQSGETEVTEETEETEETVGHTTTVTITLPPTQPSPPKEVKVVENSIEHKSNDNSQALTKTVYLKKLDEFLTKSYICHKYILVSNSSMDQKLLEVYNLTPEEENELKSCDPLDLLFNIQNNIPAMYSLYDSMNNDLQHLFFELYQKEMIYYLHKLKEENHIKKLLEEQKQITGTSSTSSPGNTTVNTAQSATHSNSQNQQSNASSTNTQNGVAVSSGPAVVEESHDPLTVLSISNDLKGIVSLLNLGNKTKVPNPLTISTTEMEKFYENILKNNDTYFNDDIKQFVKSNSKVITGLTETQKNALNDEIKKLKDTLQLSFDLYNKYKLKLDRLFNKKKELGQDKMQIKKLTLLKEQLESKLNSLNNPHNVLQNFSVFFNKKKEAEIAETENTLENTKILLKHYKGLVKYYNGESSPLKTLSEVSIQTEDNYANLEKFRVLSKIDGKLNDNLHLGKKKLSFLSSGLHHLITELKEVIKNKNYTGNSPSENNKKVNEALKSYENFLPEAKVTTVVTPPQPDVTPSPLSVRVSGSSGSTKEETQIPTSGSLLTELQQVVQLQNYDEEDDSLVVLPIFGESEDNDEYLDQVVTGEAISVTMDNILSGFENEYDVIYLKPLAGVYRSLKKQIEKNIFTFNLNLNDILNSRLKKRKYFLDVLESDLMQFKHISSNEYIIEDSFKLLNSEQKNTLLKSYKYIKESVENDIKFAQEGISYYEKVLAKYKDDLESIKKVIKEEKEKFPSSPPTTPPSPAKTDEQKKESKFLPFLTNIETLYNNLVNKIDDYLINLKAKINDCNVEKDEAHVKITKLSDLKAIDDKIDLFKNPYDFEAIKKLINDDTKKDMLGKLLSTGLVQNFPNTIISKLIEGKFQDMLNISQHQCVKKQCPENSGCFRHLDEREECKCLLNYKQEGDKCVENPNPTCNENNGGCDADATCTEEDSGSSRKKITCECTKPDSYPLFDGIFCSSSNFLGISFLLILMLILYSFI

B1: 42A9 (antibody, V domains shown)
VH: QVQVVESGGGVVQPGGSLTLSCRASGFIFSDYGLHWVRQPPGKGLEWVALINYDGRNKYYADSVRGRFTISRDNSKNTLSLQMSSLRSGDTAIYFCARVGAKWASEPMDVWGRGTTVTVSS
VL: QSVLTQPPSASGTPGQRVTISCSGSTSNVGTNFVYWYHQRPGTAPKLLIYRNDERPSGVPDRISGSKSGASASLAISGLRSEDEGDYHCSAWDGSLRRLVFGGGTKLTVL
[1]
  Kd: 0.73 nM
[2]
  binding result: binds

B2: 42C5 (antibody, V domains shown)
VH: EVQLVESGGGVVQPGGSLRLSCAASGFIFSSYSMHWVRQAPGKGLEWVAFIRYDGNRKYYGDSVKGRFTVSRDNSMDTLSLHMTNLRPEDTAIYYCARVGWTWVSEPVDVWGEGATVTVAS
VL: QSVLTQPPSASGTPGQGVSISCSGSRSNVGTNYVYWYQQVPGTAPKLLILRNTQRPSGVPDRFSGSKSGSSASLAISGLRSADEGDYYCAVWDSNLDHVVFGGGTKVTVL
[1]
  Kd: 3.29 nM
[2]
  binding result: binds

B3: 42C11 recombinant human IgG1 (hmAb 42C11) (antibody, V domains shown)
VH: QVQLVESGGGVVQPGGSLRLSCAASGFIFSSYSMHWVRQAPGKGLEWVAFIRYDGRREYYADSVKGRFTVSRDNIMNTVFLQMNNLRPEDTATYYCAKVGWTWVSEPADVWGEGATVTVSS
VL: QSVLTQPPSTSGTPGQGVTISCSGSRSNVGTNYVYWYQQIPGRAPKLLINRNTQRPSGVPVRFSGSKSGTTAFLAITGLRSEDEADYFCAVWDGDLSGVIFGGGTKVTVL
notes: IgG1; source: Expi293F cells, heavy- and light-chain plasmids co-transfected 1:1, purified (Protein A agarose, SEC)
[3]
  binding result: binds

B4: 42C11 Fab (naturally acquired human monoclonal antibody to p19) (Fab, V domains shown)
VH: QVQLVESGGGVVQPGGSLRLSCAASGFIFSSYSMHWVRQAPGKGLEWVAFIRYDGRREYYADSVKGRFTVSRDNIMNTVFLQMNNLRPEDTATYYCAKVGWTWVSEPADVWGEGATVTVSS
VL: QSVLTQPPSTSGTPGQGVTISCSGSRSNVGTNYVYWYQQIPGRAPKLLINRNTQRPSGVPVRFSGSKSGTTAFLAITGLRSEDEADYFCAVWDGDLSGVIFGGGTKVTVL
notes: source: Expi293F cells, transfected, purified from supernatant (Ni Sepharose Excel, SEC)
[4]
  Kd: 1.84 nM
  koff: 0.00047 s⁻¹
  kon: 255000 M⁻¹ s⁻¹

B5: 42D7 (antibody, V domains shown)
VH: EVQMVESGGGVVRPGGSLGLSCTASGFTFSNFGIYWVRQAPGKGLEWVAFTRYDGRNKYYGDSVKGRFTISRDNSKNTLYLQMNRLRHEDTGTYYCAKVGATWASEPMDVWGKGTTVMVSS
VL: QSVLTQPPSVSGTPGQRVTIYCSGSTSNVGTNFVYWYKQLPGAAPKLLISRNTQRPSGVPDRFSGSKSGTSAFLAISGLRSEDEASYHCSVWDGDLTGLVFGGGTKLTVL
[1]
  Kd: 6.2 nM
[2]
  binding result: binds
